The test has as its target T1, Recombinant human IGF-II R (CI-MPR) (Homo sapiens, UniProt P11717).
T1 construct: purchased R&D Systems
Kind of test: SPR binding to immobilized CI-MPR. On the technique in general: Surface plasmon resonance follows binding to a sensor surface in real time, without labels.

T1 sequence (P11717 41-2491): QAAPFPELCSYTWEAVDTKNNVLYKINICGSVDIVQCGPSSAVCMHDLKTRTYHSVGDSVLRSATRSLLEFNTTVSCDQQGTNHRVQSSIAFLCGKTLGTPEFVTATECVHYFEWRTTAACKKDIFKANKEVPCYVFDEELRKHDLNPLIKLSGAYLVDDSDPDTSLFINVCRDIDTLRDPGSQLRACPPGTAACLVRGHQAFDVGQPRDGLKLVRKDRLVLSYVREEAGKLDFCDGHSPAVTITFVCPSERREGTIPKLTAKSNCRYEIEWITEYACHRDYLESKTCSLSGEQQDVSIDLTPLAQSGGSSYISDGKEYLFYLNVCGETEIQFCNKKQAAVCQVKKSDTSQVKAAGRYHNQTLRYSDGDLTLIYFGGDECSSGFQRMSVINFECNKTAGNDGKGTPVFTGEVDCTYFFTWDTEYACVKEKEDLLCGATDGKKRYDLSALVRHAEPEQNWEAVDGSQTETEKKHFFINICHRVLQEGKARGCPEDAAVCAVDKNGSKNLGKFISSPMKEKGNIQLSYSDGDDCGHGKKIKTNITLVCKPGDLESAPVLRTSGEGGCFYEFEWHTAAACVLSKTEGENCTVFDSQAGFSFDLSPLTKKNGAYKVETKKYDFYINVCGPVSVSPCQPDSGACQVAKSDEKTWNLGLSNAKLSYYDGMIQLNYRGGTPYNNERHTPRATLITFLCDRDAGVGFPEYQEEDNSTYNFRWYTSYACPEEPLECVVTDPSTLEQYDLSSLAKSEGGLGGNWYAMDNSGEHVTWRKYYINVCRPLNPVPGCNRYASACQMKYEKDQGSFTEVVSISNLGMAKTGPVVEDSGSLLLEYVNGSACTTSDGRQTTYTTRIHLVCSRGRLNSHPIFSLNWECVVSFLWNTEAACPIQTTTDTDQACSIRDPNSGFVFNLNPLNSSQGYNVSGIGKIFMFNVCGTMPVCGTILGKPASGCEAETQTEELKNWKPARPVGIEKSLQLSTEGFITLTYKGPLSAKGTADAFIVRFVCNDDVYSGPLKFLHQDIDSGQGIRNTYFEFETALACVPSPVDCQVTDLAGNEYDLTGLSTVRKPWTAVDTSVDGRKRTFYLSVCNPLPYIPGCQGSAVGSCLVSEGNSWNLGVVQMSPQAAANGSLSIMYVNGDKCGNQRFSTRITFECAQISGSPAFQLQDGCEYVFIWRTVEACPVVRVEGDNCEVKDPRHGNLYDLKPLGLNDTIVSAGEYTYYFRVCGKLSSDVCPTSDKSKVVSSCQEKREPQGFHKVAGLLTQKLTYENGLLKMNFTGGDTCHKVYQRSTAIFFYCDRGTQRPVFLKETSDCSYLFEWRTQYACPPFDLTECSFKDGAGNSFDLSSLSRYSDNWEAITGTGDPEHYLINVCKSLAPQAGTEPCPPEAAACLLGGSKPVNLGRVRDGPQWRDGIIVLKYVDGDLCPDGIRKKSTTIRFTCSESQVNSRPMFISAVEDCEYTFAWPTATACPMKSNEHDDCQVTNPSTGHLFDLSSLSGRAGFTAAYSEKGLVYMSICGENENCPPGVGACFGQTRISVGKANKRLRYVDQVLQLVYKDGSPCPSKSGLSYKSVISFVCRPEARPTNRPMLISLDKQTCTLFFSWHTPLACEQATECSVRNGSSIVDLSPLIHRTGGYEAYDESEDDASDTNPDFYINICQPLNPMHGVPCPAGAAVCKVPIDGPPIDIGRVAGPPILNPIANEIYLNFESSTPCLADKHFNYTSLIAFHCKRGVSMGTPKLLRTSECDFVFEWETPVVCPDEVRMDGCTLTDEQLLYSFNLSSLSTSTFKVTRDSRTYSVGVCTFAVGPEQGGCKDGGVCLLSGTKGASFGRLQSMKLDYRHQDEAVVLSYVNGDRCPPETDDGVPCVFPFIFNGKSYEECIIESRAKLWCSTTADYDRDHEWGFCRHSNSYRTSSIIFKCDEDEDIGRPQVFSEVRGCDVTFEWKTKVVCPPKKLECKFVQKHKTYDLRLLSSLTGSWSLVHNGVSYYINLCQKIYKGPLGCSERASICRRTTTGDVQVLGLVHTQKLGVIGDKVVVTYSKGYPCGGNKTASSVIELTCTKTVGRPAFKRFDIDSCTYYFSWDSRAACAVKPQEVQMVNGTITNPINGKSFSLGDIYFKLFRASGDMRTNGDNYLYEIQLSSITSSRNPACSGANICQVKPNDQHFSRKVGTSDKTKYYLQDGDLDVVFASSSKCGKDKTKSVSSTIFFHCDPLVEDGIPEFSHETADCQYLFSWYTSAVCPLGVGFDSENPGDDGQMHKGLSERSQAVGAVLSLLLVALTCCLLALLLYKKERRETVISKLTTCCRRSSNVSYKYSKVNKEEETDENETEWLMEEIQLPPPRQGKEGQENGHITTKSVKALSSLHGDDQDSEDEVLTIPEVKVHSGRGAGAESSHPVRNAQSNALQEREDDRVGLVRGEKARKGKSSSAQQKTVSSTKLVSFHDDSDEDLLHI
Description: Surface Plasmon Resonance (SPR) Measurements. SPR measurements were performed on a Biacore T200 instrument (GE Healthcare). Recombinant human IGF-II R (CI-MPR) was purchased
from R&D Systems. Approximately 7000 resonance units (RU) of CI-MPR was immobilized on a
CM5 sensor chip in a sodium acetate buffer (25 μg/mL, pH 4.0) at 25 °C, using the amine coupling kit
provided by the manufacturer. Mannose 6-phosphate containing glycopeptides or glycoproteins were
determined at 25 °C under a flow rate of 10 μL/min. HBS-P+ buffer (10 mM HEPES, 150 mM NaCl,
0.05% surfactant P20, pH 7.4) was used as sample buffer and running buffer. Association was
measured for 3 min and dissociation for 10 min at same flow rate (10 μL/min). The surface
and glycoprotein analytes flowed over an immobilized chip with 2-fold serial dilution of the highest
concentration of 4 μM (for glycopeptides) or 1 μM (for RNase B) or 250 nM (for rhGAA).
analyses were performed by global fitting of the binding data to a 1:1 Langmuir binding model using

B1: 68: M6P-containing RNase B, remodeled with tetrasaccharide oxazoline 8 by Endo-A (protein, UniProt P61823 27-150, looked up)
Ribonuclease pancreatic: KETAAAKFERQHMDSSTSAASSSNYCNQMMKSRNLTKDRCKPVNTFVHESLADVQAVCSQKNVACKNGQTNCYQSYSTMSITDCRETGSSKYPNCAYKTTQANKHIIVACEGNPYVPVHFDASV
modifications: M6P-tetrasaccharide glycan remodeled by Endo-A
notes: M6P-containing RNase B, remodeled with tetrasaccharide oxazoline 8 by Endo-A
For the molecule B1, the Kd by setting is: (SPR, immobilized CI-MPR, 25 °C, average of three independent experiments) 15.8 nM; (representative SPR sensorgram, single experiment) 15.5 nM. Also, for the setting “representative SPR sensorgram, 1:1 Langmuir fit, association constant”, the Ka was determined as 6.877E+4.

In general, Kd refers to the concentration at which binding is half-saturated.

These data come from paper PMC8480326, “Chemoenzymatic glycan-selective remodeling of a therapeutic lysosomal enzyme with high-affinity M6P-glycan ligands. Enzyme substrate specificity is the name of the game” (Chemical Science, 2021).
